Data on 5 molecules can be found in patent publication US20100221257A1 (AstraZeneca / MedImmune, published 2010).

The target of experiment [1] is T1, human histidine tagged (HIS) IL1RFc fusion protein (human).
T1 construct: Biotinylated or cryptate labelled in some assays; also called human HIS IL1RFc; huIL-1R1-Fc
The experiment in a line: KinExA, FAb equilibrated in solution with IL-1R1-Fc; free FAb captured on IL-1R1 beads. On the procedure: (§1) Firstly either a monomerised FAb was allowed to come to equilibrium with sIL-1R1-Fc (soluble sIL-1R1-Fc), or the IgG was allowed to come to equilibrium with sIL-1R1 (un-tagged). These equilibrated solutions of the interacting molecules were then analysed using KinExA™. 3200 technology. In brief, for each equilibrated sample, the KinExA™. 3200 instrument automatically packed a fresh column of sIL-1R1 conjugated micro-beads. The sample containing antibody (or FAb fragment), antigen, and Ab/antigen (or FAb/antigen) complex (in Dulbecco's PBS, 1 mg mL⁻¹ bovine serum albumin, 0.02% (w/v) sodium azide) was flowed rapidly (0.25 mL/min) through the column to keep the contact time of the sample with the antigen-beads extremely brief. This rapid contact time ensured that, for high affinity (slowly dissociating) interactions, dissociation of the complex was negligible during this short contact time. Free antibody bound to the IL-1R1-beads. A Cy5™ (cyanine) fluorescently labelled secondary antibody, mouse anti-human IgG (heavy and light chain specific) was then passed through the column. Labelled secondary antibody bound to the antibody bound to the column. A buffer wash removed excess label, leaving fluorescence signal on the bead column directly proportional to the amount of free […] in the original sample. […]
(In general: Kinetic exclusion samples the free partner from a solution-phase mixture.)

In experiment [2] the target is T2, cynomolgus monkey HIS IL1RFc (cynomolgus monkey).
T2 construct: also called Cyno his IL1RFc; CynoIL1-R1-Fc
T2 sequence (chain, as listed by the source limits assumed): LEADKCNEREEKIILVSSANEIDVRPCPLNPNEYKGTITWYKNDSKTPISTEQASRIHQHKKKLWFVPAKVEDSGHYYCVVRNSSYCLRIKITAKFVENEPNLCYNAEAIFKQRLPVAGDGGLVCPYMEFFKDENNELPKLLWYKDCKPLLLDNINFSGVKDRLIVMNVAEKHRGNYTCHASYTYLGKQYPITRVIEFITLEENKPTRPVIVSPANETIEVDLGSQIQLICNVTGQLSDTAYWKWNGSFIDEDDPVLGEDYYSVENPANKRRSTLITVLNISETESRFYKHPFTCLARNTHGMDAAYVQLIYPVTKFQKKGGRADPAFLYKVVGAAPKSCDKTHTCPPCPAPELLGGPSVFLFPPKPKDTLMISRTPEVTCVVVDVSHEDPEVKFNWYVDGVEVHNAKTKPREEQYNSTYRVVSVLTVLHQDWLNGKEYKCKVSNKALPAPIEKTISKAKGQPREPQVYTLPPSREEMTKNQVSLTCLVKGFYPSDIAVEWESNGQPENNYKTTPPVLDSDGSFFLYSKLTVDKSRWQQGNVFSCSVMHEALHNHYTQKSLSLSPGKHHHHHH
The description is as above. On the procedure: as §1

Experiment [3] deals with T1, human histidine tagged (HIS) IL1RFc …. The experiment in a line: HTRF receptor-ligand assay, scFv inhibiting HIS FLAG IL-1β binding to human HIS IL1RFc. On the procedure:
(§2) After pre-incubation of the assay plates, 5 μl of 4 nM HIS FLAG IL1 beta was added. This was followed by 5 μl of 20 nM anti-FLAG IgG labelled with XL665 (CIS Bio international 61FG2XLB) and 5 μl of 3.2 nM anti-human Fc IgG labelled with cryptate (CIS Bio International 61HFCKLB). All dilutions were performed in phosphate buffered saline (PBS) containing 0.4 M potassium fluoride and 0.1% BSA (assay buffer).
(§3) Purified scFv from positive clones identified from screening were tested in either of the above receptor-ligand HTRF® assays for inhibition of binding of human HIS FLAG tagged IL1 beta to human HIS IL1RFc. A skilled person could modify these assays to test IgG or other inhibitor formats. A titration of scFv concentrations was used in order to establish the clone potency as measured by IC₅₀ values in the assay. All dilutions were carried out in assay buffer. 5 μl of a titration of purified scFv sample was added to a 384 well low volume assay plate (Costar 3676). This was then followed by addition of 2 nM human HIS IL1RFc (when using in house HIS IL1 beta) or 8 nM HIS IL1RFc (when using Alexis source IL1 beta) to a volume of 20 μl. Assay plates were then sealed and incubated at room temperature in dark for 1 hour. The subsequent addition steps were carried out as exactly as described for crude scFv containing periplasmic extracts.
In general terms: Time-resolved FRET reads energy transfer from a long-lived donor to a nearby acceptor.

For experiment [4], the target named is T3, human IL-1R1, endogenous on human cells (HeLa cells; whole blood) (human, UniProt P14778 18-569).
T3 sequence (looked up): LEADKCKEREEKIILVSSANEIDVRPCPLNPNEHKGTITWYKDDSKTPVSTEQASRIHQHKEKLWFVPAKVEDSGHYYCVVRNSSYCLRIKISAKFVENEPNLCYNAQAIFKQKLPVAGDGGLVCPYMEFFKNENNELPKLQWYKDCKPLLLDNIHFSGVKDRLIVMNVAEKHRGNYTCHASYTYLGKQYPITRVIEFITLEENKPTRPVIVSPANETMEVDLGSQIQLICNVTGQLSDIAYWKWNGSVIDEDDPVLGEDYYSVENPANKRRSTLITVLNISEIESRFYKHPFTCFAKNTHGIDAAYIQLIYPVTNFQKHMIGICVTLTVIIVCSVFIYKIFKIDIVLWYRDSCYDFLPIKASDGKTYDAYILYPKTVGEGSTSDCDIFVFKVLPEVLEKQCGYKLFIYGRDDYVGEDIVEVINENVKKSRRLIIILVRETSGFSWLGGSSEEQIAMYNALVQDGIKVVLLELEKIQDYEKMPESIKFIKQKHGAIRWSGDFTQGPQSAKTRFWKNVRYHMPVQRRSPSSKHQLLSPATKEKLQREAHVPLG
The experiment in a line: cell-based or functional assay.

Experiment [5] concerns the target T4, Human sIL-1R1 (R&D Systems), un-tagged (human, UniProt P14778 18-332, limits assumed).
T4 construct: Bought; also called soluble human IL-1R1
T4 sequence (looked up): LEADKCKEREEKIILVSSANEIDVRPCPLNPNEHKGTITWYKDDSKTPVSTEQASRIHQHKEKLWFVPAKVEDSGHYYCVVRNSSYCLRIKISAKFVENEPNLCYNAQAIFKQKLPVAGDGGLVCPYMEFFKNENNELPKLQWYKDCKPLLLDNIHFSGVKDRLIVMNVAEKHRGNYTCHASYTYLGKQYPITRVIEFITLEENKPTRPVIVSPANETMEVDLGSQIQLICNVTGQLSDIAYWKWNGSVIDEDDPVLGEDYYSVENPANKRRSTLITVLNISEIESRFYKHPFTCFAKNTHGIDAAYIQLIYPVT
The experiment in a line: KinExA, IgG equilibrated in solution with un-tagged sIL-1R1; free IgG captured on IL-1R1 beads. On the procedure:
as §1

Experiment [6] has as its target Antibody 6 (Eu3+ cryptate labelled, Example 5). The experiment in a line: HTRF competition: unlabelled test protein against biotin labelled human IL-1R1/Fc binding to cryptate labelled antibody. On the procedure:
(§4) Antibody was cryptate labelled with Eu³′ Cryptate labelling kit according to the manufacturer's instructions (CisBio International Cat No. 62EUSPEA) and IL-1R1/Fc (SEQ ID NO: 134, see Material and Methods) was Biotin labelled with EZ Link Sulfo-NHS-Biotin (Perbio Cat No. 21335) according to the manufacturer's instructions. Assay conditions were 0.25 nM Cryptate labelled antibody, 0.3 nM biotin labelled IL-1R1/Fc, 2.5 nM streptavidin XL^{ent!} (CisBio International Cat. No. 611SAXLB) in 1×D-PBS, 0.1% BSA, 0.4M potassium fluoride in a total volume of […] in a 384 well shallow well costar plate (3676). To the assay a dilution series (from maximum of 100 nM to 0.0017 nM) of test proteins was added and the assay incubated for 3 hours at room temperature. FRET signal was detected using a PerkinElmer EnVision plate reader using a 320 nm excitation filter and 620 nm and 665 nm emission filters. Results were calculated from the 665/620 ratio as a percentage of specific binding (signal with no competitor antigen). Results were analysed with Prism (GraphPad Software) using the sigmoidal dose response model.
Antibody binding of chimeric molecules was tested in an HTRF (Homogeneous Time Resolved Fluorescence) competition assay. Molecules which bound antibody at the same paratope as human IL-1R1 inhibited the binding interaction, leading to a reduction in signal. From inhibition curves IC₅₀ values for human IL-1R1, mouse IL-1R1 and chimeric molecules were calculated (Table 12). […] Chimeras that gave similar IC₅₀ values to native human IL-1R1 still contained the epitope.

The target is the same in experiment [7]. The experiment in a line: HTRF competition assay, against human IL-1R1 as reference. On the procedure: as §4
Antibody binding of chimeric molecules was tested in an HTRF (Homogeneous Time Resolved Fluorescence) competition assay. […] From inhibition curves IC₅₀ values for human IL-1R1, mouse IL-1R1 and chimeric molecules were calculated (Table 12). […]

For experiment [8], the target named is T1, human histidine tagged (HIS) IL1RFc …. The experiment in a line: HTRF receptor-ligand assay, scFv inhibiting HIS FLAG IL-1β binding to human HIS IL1RFc; incomplete inhibition curve, value estimated; incomplete inhibition curve; IC50 estimated. On the procedure: as §2, §3

B1: Antibody 6 FAb (Fab, V domains shown)
VH: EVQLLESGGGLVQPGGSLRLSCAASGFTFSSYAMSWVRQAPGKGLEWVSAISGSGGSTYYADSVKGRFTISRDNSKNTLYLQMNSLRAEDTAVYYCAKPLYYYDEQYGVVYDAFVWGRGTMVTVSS
VL: QSVLTQPPSVSGAPGQRVTISCTGSSSNIGAGYDVHWYQQLPGTAPKLLIYGDTHRPSGVPDRFSGSKSGTSASLVIAGLQAEDEADYYCQSYDTVRLHHVFGGGTKLTVL
notes: Monomeric FAb made by papain digestion of Antibody 6 IgG1TM; also called anti-IL-1R1FAb; monomerised FAb
As a reminder, the Kd is a measure of binding affinity in units of concentration. In the case of B1, the Kd in experiment [1] turned out to be 0.0025 nM; in experiment [2], 0.0028 nM.

B2: Antibody 4 scFv (scFv, V domains shown)
VH: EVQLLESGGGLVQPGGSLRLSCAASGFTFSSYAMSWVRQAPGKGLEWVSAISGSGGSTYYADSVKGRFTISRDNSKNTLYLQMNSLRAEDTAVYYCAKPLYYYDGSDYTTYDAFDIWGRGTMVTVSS
VL: QSVLTQPPSVSGAPGQRVTISCTGSSSNIGAGYDVHWYQQLPGTAPKLLIYGDTHRPSGVPDRFSGSKSGTSASLVIAGLQAEDEADYYCQSYDTSLSGSLFGGGTKLTVL
notes: Tested as purified scFv; also called KENB026 or KENB061 (parent, not resolved)
As a reminder, the IC50 is the concentration at which inhibition is half-maximal. For B2, the IC50 in experiment [3] was 22.5 nM.

B3: Antibody 6 IgG1TM (Triple Mutant, 234F, 235E and 331S) (antibody, V domains shown)
VH: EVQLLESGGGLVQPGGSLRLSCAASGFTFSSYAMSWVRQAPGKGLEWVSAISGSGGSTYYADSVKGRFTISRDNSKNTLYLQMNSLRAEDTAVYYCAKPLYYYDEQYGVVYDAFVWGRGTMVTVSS
VL: QSVLTQPPSVSGAPGQRVTISCTGSSSNIGAGYDVHWYQQLPGTAPKLLIYGDTHRPSGVPDRFSGSKSGTSASLVIAGLQAEDEADYYCQSYDTVRLHHVFGGGTKLTVL
notes: IgG1 with Fc triple mutant 234F, 235E, 331S (EU index)
Regarding B3, the “Mean IC50, whole blood assay, IL-1beta induced release of IL-6” value in experiment [4] was 311000 nM. Further, in experiment [5], the affinity, expressed as Kd, was 0.00305 nM.

B4: MoD2a IL1R1 (Fc fusion, human;mouse, UniProt P14778 18-122, looked up, not shown: a dimerising Fc or GST)
chain: LEADKCKEREEKIILVSSANEIDVRPCPLNPNEHKGTITWYKDDSKTPVSTEQASRIHQHKEKLWFVPAKVEDSGHYYCVVRNSSYCLRIKISAKFVENEPNLCYSTQATFPQRLHIAGDGGLVCPYMEFFKNENNELPKLQWYKDCKPLLLDNIHFSGVKDRLIVMNVAEKHRGNYTCHASYTYLGKQYPITRVIEFITLEENKPTRPVIVSPANETMEVDLGSQIQLICNVTGQLSDIAYWKWNGSVIDEDDPVLGEDYYSVENPANKRRSTLITVLNISEIESRFYKHPFTCFAKNTHGIDAAYIQLIYPVTNFQK
notes: range 1-122;range 126-137;range 135-336; also called chimera without human beta strand a2
Molecule B4 displayed an IC50 in experiment [6] of 4.6 nM. For the same molecule, the “fold higher IC50 than human IL1R1” value in experiment [7] is 26 fold.

B5: Antibody 1 scFv (scFv, V domains shown)
VH: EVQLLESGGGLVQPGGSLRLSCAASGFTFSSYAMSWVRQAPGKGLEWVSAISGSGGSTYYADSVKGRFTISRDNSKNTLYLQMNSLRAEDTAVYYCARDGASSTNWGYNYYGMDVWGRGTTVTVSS
VL: QAVLTQPSSASGTPGQRVTISCSGSSSNIGSNYVFWYQQFPGTAPQLLVKWNNQRPSGVPDRFSGSKSGTSASLAISGLRSEDEADYYCAAWDDSLSGLVFGGGTKLTVL
notes: as for B2
Consider B5, for which the IC50 in experiment [8] is around 225 nM.
